doi:10.1101/2020.01.13.904318 (bioRxiv, 2020)

Molecular target: the molecule itself
Assay: SEC

B1: purified FrlR UTRA-domain (domain or fragment)
chain: QKVENALLTVSGFTDFGVSQGKATKEKVIEQERVSAAPFCEKLNIPGNSEVFHLCRVMYLDKEPLFIDSSWIPLSRYPDFDEIYVEGSSTYQLFQERFDTRVVSDKKTIDIFAATRPQAKWLKCELGEPLFRISKIAFDQNDKPVHVSELFCRANRITLTIDNKRH
B1 was tested, and the “stoichiometry N” value was 2.
